Data as given in US20200010567A1 (NEURIMMUNE, published 2020).

T1: GP20: H-(GP)20HHHHHH-NH2 (C-terminal amide)
T1 peptide: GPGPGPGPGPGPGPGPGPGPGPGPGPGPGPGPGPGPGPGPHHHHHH

T2: (GP)15: H-C(GP)15-OH
T2 construct: synthetic, not coupled to BSA; also called poly-GP DPR protein peptide
T2 peptide: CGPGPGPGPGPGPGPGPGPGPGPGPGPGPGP

T3: GA5: H-(GA)5HHHHHH-NH2
T3 peptide: H-GAGAGAGAGAHHHHHH-NH2

T4: (GA)15: H-CHHHHHH(GA)15-OH
T4 construct: synthetic, not coupled to BSA; also called poly-GA DPR protein peptide
T4 peptide: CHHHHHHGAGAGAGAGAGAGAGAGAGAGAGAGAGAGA

B1: NI-308.5G2 (antibody, V domains shown)
VH: EVQLVQSGADLRNPGASVTVSCTASGYHFADNAINWLRQAPGQRLEWMGWINIYSGNTKYSQNFQGRVTFTRNTSASTAFMHLRSLRSEDTAVYFCARDPDSSGYYLPYFDYWGQGTLVTVSS
VL: DIQLTQSPDSLTLSLGERATINCKSSQSVFYNSNNKNYLAWYQQKPGQPPKLLMYWASTRESGVTDRFSGSGSGTDFTLTITNLQAEDVAVYYCQQFYSSPLTFGGGTKVEIK
notes: Recombinant complete human IgG1, kappa
B2: NI-308.15O7 (antibody, V domains shown)
VH: QVQLVESGGGVVQPGRSLRLSCAASGFTFSNHAMHWVRQAPGKGLEWVAVISYDGENTYYADSIEGRFTISRDNFKNTLFLQMYSLTADDTAMYFCARGGRRGHFTSYYLDYWGQGTLVTVSS
VL: CDIQMTQSPSSLSASVGDRVTITCRASQNIDKYLNWYQQIPGKAPKLLIYAASSLHSGVPSRFSGSGSGTDFSLTISSLQPEDFAIYYCQQSYSSFRTFGQGTKLEIK
B3: NI-308.46E9 (antibody, V domains shown)
VH: QVQLQESGPGLVKPSETLSLTCTVSGASISGSTYYWGWIRQPPGKGLEYIGRIYYSGSTYYNPSLKSRATISVDTSKNQLSLTLSSVTAADTAVYYCVRPFYAGSGNSPFDYWGQGTLVTVSS
VL: CEIVLTQSPATVSVSPGERATLSCRASQSVSTNLAWYQQKPGQPPRLLIYGASTRATGIPARFSGSGSGAEFTLTISSLQSEDFVVYYCQQYNNWPPAFGGGTKVEIK
notes: as for B1
B4: NI-308.28G1 (antibody, V domains shown)
VH: QVQLQESGPRLVKPSETLSLTCTVAGGSVNSYYWTWIQQSPGKGLEWLGRIYIAGRTNYNPSLTSRIALSVDTSRNQLSLKLTSVTAADTAIYYCARWGAESGDYYYGVDVWGPGTLVTVSS
VL: EIVMTQSPLSLPVTPGEPASISCKSSEGLLHSNGYTYLDWYLQKPGQAPQLLIFLASNRAAGVPDRFSGSGSGTDFTLKISRVEAEDVGVYYCMQAIQSPWTFGPGTKVEIK
notes: as for B1
B5: NI-308.45C2 (antibody, V domains shown)
VH: QLQLQESGPGLVKPSQILSLTCAISGDSVFSNSAAWNWIRQSPSRGLEWLGRTYYRSKWDNDYAPSVKSRISINPDTSKNQFSLQLNSVTPEDTAVYYCAREVAYCGGDCYSVSFDYWGQGTLVTVSS
VL: not shown
notes: as for B1

Key:
GP20: H-(GP)20HHHHHH-NH2 = target: T1, GP20: H-(GP)20HHHHHH-NH2; experiment: indirect ELISA, coated His-tagged peptide
Summary of the method: (§1)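 Antibodies at graded concentrations bound for 1 h at room temperature to wells carrying 50 μg/ml His-tagged repeat peptide (pH 9.42 carbonate coating, 2% BSA block). Bound IgG read colorimetrically via HRP anti-human Fcγ; EC₅₀ estimated by non-linear regression.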

[1] = target: T5, BSA-coupled (GP)15 DPR protein peptide (bovine, conjugated via a bifunctional linker (SMCC) to bovine serum albumin); experiment: indirect ELISA, BSA-coupled peptide coated, antibody titrated [also D00014 FIG. 3G]
T5 construct: also called BSA-(GP)15
T5 sequence (P02769 25-607 limits assumed, chain 2 of 2, one chain of several): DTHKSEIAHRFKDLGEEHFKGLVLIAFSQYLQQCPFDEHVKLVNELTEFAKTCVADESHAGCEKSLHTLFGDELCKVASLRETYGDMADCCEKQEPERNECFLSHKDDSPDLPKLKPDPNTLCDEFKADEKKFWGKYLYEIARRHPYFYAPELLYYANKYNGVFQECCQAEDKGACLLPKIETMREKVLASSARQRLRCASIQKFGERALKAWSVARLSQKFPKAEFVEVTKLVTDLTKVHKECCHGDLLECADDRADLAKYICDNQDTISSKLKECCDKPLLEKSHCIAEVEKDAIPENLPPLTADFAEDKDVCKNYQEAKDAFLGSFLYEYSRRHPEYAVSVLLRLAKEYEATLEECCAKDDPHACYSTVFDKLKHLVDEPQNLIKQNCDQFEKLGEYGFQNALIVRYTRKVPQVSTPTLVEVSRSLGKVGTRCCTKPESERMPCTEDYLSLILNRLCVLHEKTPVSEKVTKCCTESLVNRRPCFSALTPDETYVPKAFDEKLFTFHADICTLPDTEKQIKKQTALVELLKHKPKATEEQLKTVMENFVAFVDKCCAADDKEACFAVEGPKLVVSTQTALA
Procedure: (§2) In brief, dipeptide repeat proteins were synthesized and purified by Schafer-N(Copenhagen, Denmark): (GA)₁₅: H-CHHHHHH(GA)₁₅-OH; (GP)₁₅: H-C(GP)₁₅-OH; (GR)₁₅: H-C(GR)₁₅-OH; (PA)₁₅: H-C(PA)₁₅-OH; (PR)₁₅: H—C(PR)₁₅-OH. DPR protein peptides were then conjugated via a bifunctional linker (SMCC) to bovine serum albumin (BSA). 96-well microplates (Corning Incorporated, Corning, USA) were coated with BSA-coupled or -uncoupled dipeptide repeat protein peptides at a concentration of either 5 μg/ml or 20 μg/ml in coating buffer (15 mM Na₂CO₃, 35 mM NaHCO₃, pH 9.42). Non-specific binding sites were blocked for 1 h at room temperature with PBS/0.1% Tween®-20 containing 2% BSA (Sigma-Aldrich, Buchs, Switzerland). Primary antibodies were diluted to the indicated concentrations and incubated 1 h at room temperature, followed by incubation with a donkey anti-human IgG Fcγ-specific antibody conjugated with HRP (Jackson ImmunoResearch Laboratories, Inc., West Grove, USA). Binding was determined by measurement of HRP activity in a standard colorimetric assay. EC₅₀ values were estimated by non-linear regression using GraphPad Prism software (San Diego, USA).

(GP)15: H-C(GP)15-OH = target: T2, (GP)15: H-C(GP)15-OH; experiment: indirect ELISA, coated uncoupled peptide
GA5: H-(GA)5HHHHHH-NH2 = target: T3, GA5: H-(GA)5HHHHHH-NH2; experiment: indirect ELISA, coated His-tagged peptide
Summary of the method: as §1

[2] = target: T4, (GA)15: H-CHHHHHH(GA)15-OH; experiment: indirect ELISA, uncoupled peptide coated, antibody titrated [also D00012 FIG. 3C]
Procedure: as §2

[3] = target: T6, BSA-coupled (GA)15 DPR protein peptide (bovine, conjugated via a bifunctional linker (SMCC) to bovine serum albumin); experiment: indirect ELISA, BSA-coupled peptide coated, antibody titrated [also D00013 FIG. 3E]
T6 construct: also called BSA-(GA)15
T6 sequence (P02769 25-607 limits assumed): as the sequence (P02769 25-607 limits assumed, chain 2 of 2, one chain of several) above
Procedure: as §2

Binder | EC50 (GP20: H-(GP)20HHHHHH-NH2) [nM] | EC50 ((GP)15: H-C(GP)15-OH) [nM] | EC50 (GA5: H-(GA)5HHHHHH-NH2) [nM] | further results
B1 | 0.47 | 0.88 | – | EC50 [1]: 0.21 nM
B2 | – | – | > 150 | EC50 [2]: 0.18 nM
B3 | 15.5 | 13.9 | – | –
B4 | – | – | > 200 | –
B5 | – | – | – | EC50 [3]: 15.2 nM
